Legend:
[1] = biological target: anti-VEGF/ANG2 antibody (IgG1 subclass with mutations P329G/L234A/L235A/I253A/H310A/H435A) (human) [IgG part: P01857]; assay: sandwich ELISA in serum; M1.3.17-Bi capture on SA plate; tracer anti-human kappa M1.7.10-Dig; analyte 1.25 ng/mL
[2] = biological target: anti-VEGF/ANG2 antibody (IgG1 subclass with mutations P329G/L234A/L235A/I253A/H310A/H435A) (human) [IgG part: P01857]; assay: sandwich ELISA in serum; M1.3.17-Bi capture on SA plate; tracer anti-human kappa M1.7.10-Dig; analyte 2.5 ng/mL
[3] = biological target: anti-VEGF/ANG2 antibody (IgG1 subclass with mutations P329G/L234A/L235A/I253A/H310A/H435A) [IgG part: P01857]; assay: bridging ELISA; biotinylated and digoxigenylated anti-VEGF/ANG2 antibody bridged by M1.3.17 at 0 ng/mL (blank)
[4] = biological target: anti-VEGF/ANG2 antibody (IgG1 subclass with mutations P329G/L234A/L235A/I253A/H310A/H435A) [IgG part: P01857]; assay: sandwich ELISA in serum; capture M1.3.17, tracer M1.7.24; anti-VEGF/ANG2 antibody 0 ng/mL (blank)
[5] = biological target: anti-VEGF/ANG2 antibody (IgG1 subclass with mutations P329G/L234A/L235A/I253A/H310A/H435A) (human) [IgG part: P01857]; assay: sandwich ELISA in serum; M1.3.17-Bi capture on SA plate; tracer anti-human kappa M1.7.10-Dig; analyte 0 ng/mL (blank)
[6] = biological target: anti-VEGF/ANG2 antibody (IgG1 subclass with mutations P329G/L234A/L235A/I253A/H310A/H435A) (human) [IgG part: P01857]; assay: sandwich ELISA in serum; M1.3.17-Bi capture on SA plate; tracer anti-human kappa M1.7.10-Dig; analyte 10 ng/mL
[7] = biological target: anti-VEGF/ANG2 antibody (IgG1 subclass with mutations P329G/L234A/L235A/I253A/H310A/H435A) [IgG part: P01857]; assay: bridging ELISA; biotinylated and digoxigenylated anti-VEGF/ANG2 antibody bridged by M1.3.17 at 62.5 ng/mL
[8] = biological target: anti-VEGF/ANG2 antibody (IgG1 subclass with mutations P329G/L234A/L235A/I253A/H310A/H435A) (human) [IgG part: P01857]; assay: sandwich ELISA in serum; M1.3.17-Bi capture on SA plate; tracer anti-human kappa M1.7.10-Dig; analyte 5 ng/mL
[9] = biological target: anti-VEGF/ANG2 antibody (IgG1 subclass with mutations P329G/L234A/L235A/I253A/H310A/H435A) [IgG part: P01857]; assay: sandwich ELISA in serum; capture M1.3.17, tracer M1.7.24; anti-VEGF/ANG2 antibody 1250 ng/mL
[10] = biological target: anti-VEGF/ANG2 antibody (IgG1 subclass with mutations P329G/L234A/L235A/I253A/H310A/H435A) [IgG part: P01857]; assay: sandwich ELISA in serum; capture M1.3.17, tracer M1.7.24; anti-VEGF/ANG2 antibody 2500 ng/mL
[11] = biological target: anti-VEGF/ANG2 antibody (IgG1 subclass with mutations P329G/L234A/L235A/I253A/H310A/H435A) [IgG part: P01857]; assay: sandwich ELISA in serum; capture M1.3.17, tracer M1.7.24; anti-VEGF/ANG2 antibody 312.5 ng/mL
[12] = biological target: anti-VEGF/ANG2 antibody (IgG1 subclass with mutations P329G/L234A/L235A/I253A/H310A/H435A) [IgG part: P01857]; assay: sandwich ELISA in serum; capture M1.3.17, tracer M1.7.24; anti-VEGF/ANG2 antibody 156.25 ng/mL
[13] = biological target: anti-VEGF/ANG2 antibody (IgG1 subclass with mutations P329G/L234A/L235A/I253A/H310A/H435A) (human) [IgG part: P01857]; assay: sandwich ELISA in serum; M1.3.17-Bi capture on SA plate; tracer anti-human kappa M1.7.10-Dig; analyte 0.625 ng/mL
[14] = biological target: cytokine (IL-2) antibody conjugate with the mutations P329G, L234A, L235A, I253A, H310A, and H435A; assay: sandwich ELISA in serum; capture anti-IL2 antibody, tracer M1.7.24; conjugate 39.0625 ng/mL
[15] = biological target: cytokine (IL-2) antibody conjugate with the mutations P329G, L234A, L235A, I253A, H310A, and H435A; assay: sandwich ELISA in serum; capture anti-IL2 antibody, tracer M1.7.24; conjugate 78.125 ng/mL
[16] = biological target: anti-VEGF/ANG2 antibody (IgG1 subclass with mutations P329G/L234A/L235A/I253A/H310A/H435A) [IgG part: P01857]; assay: sandwich ELISA in serum; capture M1.7.10-Bi, tracer M1.7.24-Dig; anti-VEGF/ANG2 antibody 0.0390625 ng/mL
[17] = biological target: anti-VEGF/ANG2 antibody (IgG1 subclass with mutations P329G/L234A/L235A/I253A/H310A/H435A) [IgG part: P01857]; assay: sandwich ELISA in serum; capture M1.7.10-Bi, tracer M1.7.24-Dig; anti-VEGF/ANG2 antibody 0.3125 ng/mL
[18] = biological target: anti-VEGF/ANG2 antibody (IgG1 subclass with mutations P329G/L234A/L235A/I253A/H310A/H435A) [IgG part: P01857]; assay: sandwich ELISA in serum; capture M1.7.10-Bi, tracer M1.7.24-Dig; anti-VEGF/ANG2 antibody 0.15625 ng/mL
[19] = biological target: cytokine (IL-2) antibody conjugate with the mutations P329G, L234A, L235A, I253A, H310A, and H435A; assay: sandwich ELISA in serum; capture anti-IL2 antibody, tracer M1.7.24; conjugate 2500 ng/mL
[20] = biological target: cytokine (IL-2) antibody conjugate with the mutations P329G, L234A, L235A, I253A, H310A, and H435A; assay: sandwich ELISA in serum; capture anti-IL2 antibody, tracer M1.7.24; conjugate 312.5 ng/mL

signal [OD405 nm] [1] | signal [OD405 nm] [2] | signal [OD405 nm] [3] | signal [OD405 nm] [4] | signal [OD405 nm] [5] | signal [OD405 nm] [6] | signal [OD405 nm] [7] | signal [OD405 nm] [8] | signal [OD405 nm] [9] | signal [OD405 nm] [10] | signal [OD405 nm] [11] | signal [OD405 nm] [12] | signal [OD405 nm] [13] | signal [OD405 nm] [14] | signal [OD405 nm] [15] | signal [OD405 nm] [16] | signal [OD405 nm] [17] | signal [OD405 nm] [18] | signal [OD405 nm] [19] | signal [OD405 nm] [20] | Binder
0.573 OD405 nm | 0.987 OD405 nm | 0.046 OD405 nm | 0.175 OD405 nm | 0.074 OD405 nm | 2.23 OD405 nm | 0.063 OD405 nm | 1.6 OD405 nm | 1.88 OD405 nm | 2.77 OD405 nm | 0.658 OD405 nm | 0.418 OD405 nm | 0.314 OD405 nm | – | – | – | – | – | – | – | anti-variant (human) Fc-region antibody M1.3.17 (antibody, V domains shown) VH: EVKLLESGGGLVQPGGSLKLSCAASGIDFRRYWMNWVRQAPGKGLEWIGEIDPDSSTINYTPSLKDKFIISRDNAKNTMYLQMRKVRSEDTALYYCARPYDYGAWFAYWGQGTLVTVSA VL: QAVVTQESALTTSPGETVTLTCRSTTGAVTTSNYANWVQEKPDHLFTGLIGGTNKRAPGVPARFSGSLIGDKAALTITGAQTEDEAIYFCALWYSDHWVFGGGTKLTVL
– | – | – | – | – | – | – | – | – | – | – | – | – | 0.101 OD405 nm | 0.152 OD405 nm | 0.072 OD405 nm | 0.261 OD405 nm | 0.147 OD405 nm | 2.35 OD405 nm | 0.451 OD405 nm | anti-variant (human) Fc-region antibody M1.7.24 (antibody, V domains shown) VH: EVKLLESGGGLVQPGGSLKLSCAASGFDFSRYWMNWVRQAPGKGLEWIGEITPDSSTINYTPSLKDKFIISRDNAKNTLYLQMIKVRSEDTALYYCVRPYDYGAWFASWGQGTLVTVSA VL: QAVVTQESALTTSPGETVTLTCRSSTGAVTTSNYANWVQEKPDHLFTGLIGGTNKRAPGVPARFSGSLIGDKAALTITGAQTEDEAIYFCALWYSNHWVFGGGTKLTVL
